The target in the test is T1, 6-His-tagged RLIP76ΔRBD (human, UniProt Q15311 1-392).
T1 sequence: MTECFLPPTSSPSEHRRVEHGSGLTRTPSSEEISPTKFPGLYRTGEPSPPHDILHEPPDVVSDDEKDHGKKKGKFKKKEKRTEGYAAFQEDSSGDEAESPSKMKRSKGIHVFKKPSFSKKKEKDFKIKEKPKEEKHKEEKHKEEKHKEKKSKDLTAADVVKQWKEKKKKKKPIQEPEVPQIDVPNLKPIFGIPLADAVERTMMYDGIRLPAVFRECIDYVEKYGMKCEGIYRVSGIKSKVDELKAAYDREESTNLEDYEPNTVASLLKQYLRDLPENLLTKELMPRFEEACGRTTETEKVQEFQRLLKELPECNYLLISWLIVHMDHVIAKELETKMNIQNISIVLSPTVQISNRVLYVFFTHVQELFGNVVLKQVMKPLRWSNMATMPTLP
Description: pull-down.

The record followed here is article PMC2064341 (The Journal of Cell Biology, 2006).

B1: GST–R-Ras(wt) (natural protein, human, UniProt P10301 1-218, looked up)
chain: MSSGAASGTGRGRPRGGGPGPGDPPPSETHKLVVVGGGGVGKSALTIQFIQSYFVSDYDPTIEDSYTKICSVDGIPARLDILDTAGQEEFGAMREQYMRAGHGFLLVFAINDRQSFNEVGKLFTQILRVKDRDDFPVVLVGNKADLESQRQVPRSEASAFGASHHVAYFEASAKLRLNVDEAFEQLVRAVRKYQEQELPPSPPSAPRKKGGGCPCVLL
For B1, the binding result is on record as “binds”.
